Data: publication doi:10.1101/2023.01.07.523072

Target: RPN13 pru domain (Arabidopsis thaliana) (UniProt O48726)
Experiment: ITC

UniProt O48726, sequence (O48726 9-121): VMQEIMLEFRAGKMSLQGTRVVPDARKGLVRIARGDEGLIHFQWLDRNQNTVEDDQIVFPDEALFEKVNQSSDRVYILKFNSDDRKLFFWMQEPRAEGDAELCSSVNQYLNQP

Work on “TTOP UBL domain (from UniProt F4K1H0 1-879) (domain or fragment)” yielded a Kd of 29 µM and a stoichiometry N of 1.
